We go through 1 substance from article PMC4321713.

For the test, the target named is Cnidoin fragment (residues 150 to 419) with N-terminal ybbR tag and C-terminal type I dockerin-histidine tag (Hydra magnipapillata | not stated). Description: AFM single molecule force spectroscopy; Cnidoin-dockerin construct attached covalently by its ybbR tag to a coenzyme A glass surface; CBM A2C-Cohesin on the cantilever tip; 25 mM Tris, 72 mM NaCl, pH 7.2, 1 mM CaCl2, 10 mM DTT; pulling speeds 200 nm/s to 6,400 nm/s.

Substance “CBM A2C-Cohesin from Clostridium thermocellum (domain or fragment)” registered a rupture force of 100 pN.
